Data as given in article PMC5431086, “The Rational Design of Therapeutic Peptides for Aminopeptidase N using a Substrate-Based Approach” (Scientific Reports, 2017).
Starred links: 1 amine or outer side, 2 acyl side, 3 side chain; linkers in the order of their positions; H or OH if unused. Positions of bridges follow the written chain, without caps; N, C: chain ends. No end group written: not given here. *: point of attachment. Suc = O=C(CCC(=O)[*:2])[*:1]; Cbz = O=C(OCc1ccccc1)*; For = O=C*

Molecular target: chymotrypsin
Assay: enzyme inhibition assay (panel of proteases); cyc-LHSPW tested against a panel of cancer-associated proteases (Fig. 5A); conditions not given

Binder | Ki [µM]
CLHSPWC (disulfide 1-7) [cyc-LHSPW] | > 100

Molecular target: aminopeptidase N on the surface of PC3 cells (human (endogenous in PC3)) (UniProt P15144)
Assay: not given

Chain of aminopeptidase N on the surface of PC3 cells (human (endogenous in PC3)) (P15144 whole entry): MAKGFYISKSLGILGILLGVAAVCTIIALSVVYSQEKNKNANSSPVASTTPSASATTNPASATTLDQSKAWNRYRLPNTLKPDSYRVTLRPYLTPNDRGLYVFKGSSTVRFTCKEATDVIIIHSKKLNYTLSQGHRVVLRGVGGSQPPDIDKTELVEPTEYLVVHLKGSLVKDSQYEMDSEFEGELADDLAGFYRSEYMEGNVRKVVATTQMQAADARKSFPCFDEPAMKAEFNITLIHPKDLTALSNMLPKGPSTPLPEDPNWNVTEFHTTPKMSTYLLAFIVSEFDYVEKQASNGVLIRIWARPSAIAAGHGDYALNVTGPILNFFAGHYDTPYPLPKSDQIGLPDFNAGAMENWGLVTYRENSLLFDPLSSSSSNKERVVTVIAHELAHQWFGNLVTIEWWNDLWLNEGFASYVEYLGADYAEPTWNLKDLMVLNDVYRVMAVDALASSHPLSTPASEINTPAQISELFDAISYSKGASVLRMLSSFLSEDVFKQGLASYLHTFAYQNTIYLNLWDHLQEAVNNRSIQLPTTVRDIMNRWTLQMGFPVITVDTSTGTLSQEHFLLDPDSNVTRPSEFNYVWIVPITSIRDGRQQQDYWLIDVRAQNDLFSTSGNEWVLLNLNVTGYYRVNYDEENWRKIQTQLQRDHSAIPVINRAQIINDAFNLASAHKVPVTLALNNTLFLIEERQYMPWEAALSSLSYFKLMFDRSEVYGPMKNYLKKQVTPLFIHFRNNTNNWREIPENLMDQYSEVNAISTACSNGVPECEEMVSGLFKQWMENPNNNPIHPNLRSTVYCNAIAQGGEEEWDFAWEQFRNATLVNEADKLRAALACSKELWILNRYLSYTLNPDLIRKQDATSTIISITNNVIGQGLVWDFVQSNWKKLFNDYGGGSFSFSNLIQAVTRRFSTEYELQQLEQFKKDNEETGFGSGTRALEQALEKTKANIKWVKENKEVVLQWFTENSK

Binder | tumor volume of PC3 xenografts at day 35, mice treated with 40 mg/kg cyc-LHSPW t.i.w. x4 (saline and cyc-NGR arms >1000 mm^3) [mm^3]
CLHSPWC (disulfide 1-7) [cyc-LHSPW] | 309

Molecular target: recombinant human aminopeptidase N (hAPN) (human) (UniProt P15144)
Assay: enzyme inhibition assay (competition with the fluorogenic substrate H-Ala-AMC); 0.1 μM APN, 100 μM H-Ala-AMC, 100 mM Tris pH 7.2, Brij 35 0.0002% w/v, 37 °C, triplicate; inhibition competitive, Ki from the IC50 by the Cheng-Prusoff equation

IC50 [µM] | Ki [µM] | Binder
115 | – | EHSPW
> 500 | – | EPKVA
> 500 | – | FYLRE
– | > 500 | Cbz-LHSPW [Cbz-LHSPW]
> 500 | – | FSLSK
43.3 | – | HSPW
– | > 500 | CPHSPWC (disulfide 1-7) [cyc-PHSPW]
– | > 500 | CAHSPWC (disulfide 1-7) [cyc-AHSPW]
– | > 500 | CLHSC (disulfide 1-5) [cyc-LHS]
– | > 500 | For-HSPW [For-HSPW]
> 500 | – | AHLFN
> 500 | – | FDWWG
82.5 | – | PHSPW
> 500 | – | LDSTF
> 500 | – | DARK
– | > 500 | Suc-HSPW [Suc-HSPW]
– | > 500 | CLDSTFC (disulfide 1-7) [cyc-LDSTF]
– | > 500 | CADARKC (disulfide 1-7) [cyc-ADARK]
> 500 | – | RDLVD

Further lines, the binder ahead of its results:

Binder | IC50 [µM] | Ki [µM]
ADARK | > 500 | –
AHSPW | 9.4 | –
CLHSPWC (disulfide 1-7) [cyc-LHSPW] | – | 24.7
INDFL | > 500 | –
Cbz-HSPW [Cbz-HSPW] | – | > 500
SKSGQ | > 500 | –
DSTF | > 500 | –
Ac-LHSPW [Ac-LHSPW] | – | > 500
For-LHSPW [For-LHSPW] | – | > 500
Suc-LHSPW [Suc-LHSPW] | – | > 500
Ac-HSPW [Ac-HSPW] | – | > 500
LHSPW | 10.6 | –
CLHSPC (disulfide 1-6) [cyc-LHSP] | – | 121
AHSTF | > 500 | –
